B1: chimeric antibody 81H10 (antibody, human IgG1, kappa, V domains shown)
VH: EVKLEESGGGLVQPGGSMKLSCVASGFTFSNYWMNWVRQSPEKGLEWVAEIRLKSNNYATHYAESVKGRFTISRDVSKSSVYLQMNNLRTEDTGIYYCTDTAPFAYWGQGTLVTVSA
VL: DIVMTQSHKFMSTSVGDRVSITCKASQDVGTDVAWYQQKPGQSPKLLIYWASTRHTGVPDRFTGSGSGTDFTLTISNVQSEDLSDYFCQQYSSYPLTFGGGTKLEIKR
B2: humanized antibody hz81H10.4 (antibody, human IgG1, kappa, V domains shown)
VH: EVQLVESGGGLVKPGGSLRLSCAASGFTFSNYWMNWVRQAPGKGLEWVAEIRLKSNNYATHYAESVKGRFTISRDVSKNTVYLQMNSLKTEDTAVYYCTDTAPFAYWGQGTLVTVSS
VL: DIQMTQSPSSLSASVGDRVTITCKASQDVGTDVAWYQQKPGKAPKLLIYWASTRHTGVPSRFSGSGSGTDFTLTISSLQPEDFATYYCQQYSSYPLTFGGGTKVEIKR

Molecular target: Cynomolgus monkey Ang2 C-terminal domain (Lys274-Phe495) (cynomolgus monkey)
Sequence (chain, as listed by the source, form in doubt): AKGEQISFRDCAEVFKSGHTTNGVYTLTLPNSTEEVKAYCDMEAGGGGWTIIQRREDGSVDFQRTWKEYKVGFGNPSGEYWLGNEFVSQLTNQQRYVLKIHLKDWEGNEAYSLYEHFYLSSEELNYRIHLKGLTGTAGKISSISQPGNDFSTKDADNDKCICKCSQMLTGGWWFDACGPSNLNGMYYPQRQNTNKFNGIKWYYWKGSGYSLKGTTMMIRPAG
Experiment: ForteBio BLI, antibody on AHQ sensor, 100 nM antigen, 1:1 model

Binder | Kd
B1 | 44.3 nM
B2 | 88.3 nM

Reference: patent publication US20240239881A1
